Like-named read-outs stand apart in the source and are kept apart here. Where no end group is shown, it is not given here. [ ]: non-standard residue; d: D form. biotin (long spacer arm) = biotin with long spacer arm, attached via N-hydroxysuccinimidyl ester of biotin; Nle = CCCC[C@H](N)C(=O)O

The values that follow come from patent publication US6303317A, “Peptide probes and methods for making the same” (The Regents of the University of California, priority 1998, dated 2001).

One data set deals with T1, APC-55 (Homo sapiens, UniProt P25054).
T1 construct: APC-55, a peptide corresponding to amino acids 2-55 of human APC; made in house; host or cells: E. coli BL21 (DE3), pAED4 plasmid
T1 sequence (P25054 2-55): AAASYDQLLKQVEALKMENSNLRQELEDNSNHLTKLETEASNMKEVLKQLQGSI
Kind of data set: Fluorescence energy transfer titration (dissociation constant of heterodimer). Format: binding. As for the experimental part: Based on the sensitivity of the fluorescence method used, the dissociation constant of the APC-55/Anti-APCp2 heterodimer was estimated to be less than 10 nM. […] Because the amino-terminal, coiled coil sequence targeted by anti-APCp1 occurs in tumor-associated truncation mutants, the distinct electrophoretic mobilities of the species detected by the antisense peptide distinguish wild-type from tumorigenic APC variants (FIG. 9).

Data set [1] concerns the target T2, N-terminal APC coiled coil (APC-55) (Homo sapiens, UniProt P25054).
T2 construct: APC-55, a peptide corresponding to amino acids 2-55 of human APC; made in house; host or cells: E. coli BL21 (DE3), pAED4 plasmid
T2 sequence (P25054 2-55): T1 sequence (P25054 2-55)
Kind of data set: Thermal denaturation followed by circular dichroism at 222 nm (apparent Tm). Format: physicochemical. The note with it: for Apparent Tm: 10 mM phosphate pH 7.0 and 100 mM potassium flouride, midpoint of CD thermal denaturation at 222 nm. The protocol:
Circular dischroism investigations are well known in the art. For example, such an investigation may be performed using a 1 cm or 1 mm cuvette (Helma or Uvonic) on an Aviv CD spectrophotometer (model 60DS or model 62DS) equipped with a thermoelectric controller. The buffer used for all CD experiments except pH titrations is 100 mM KF, 10 mM potassium phosphate (pH 7.0). All peptide concentrations may be determined by tyrosine absorbance at 275.5 nm in 6.0 M GuHCl PH 6.5 (Schwarz/Mann Biotech Ultra-Pure grade) using an Aviv UV/VIS spectrophotometer (model 1 BDS or 14 DS). The molar ellipticity at 222 nm, 5° C., is measured for the homo- and heterodimers. The CD values (i.e., deg cm^2 and dmol^-1) indicate % helicity of the peptides. Thermal melting curves are determined by monitoring the CD signal at 222 nm as a function of temperature. The pH dependence of stability may be measured in 100 mM KF, 10 mM potassium phosphate at various pH values. GuHCl (Schwarz/Mann Biotech Ultra-Pure grade) (e.g., 2M) may be included in the buffer used for monitoring the pH dependence of stability. pH stability is indicated if the same overall shape of the pH dependence curve is obtained in the absence as well as the presence of GuHCl. It is also desirable to determine the reversibility for all thermal melts. The absence of reversibility of a melting curve above a certain pH value indicates chemical modification and/or degradation of the polypeptide. Such modification and/or degradation may be confirmed using HPLC.
Thermal denaturation is used to determine Tm. The term "Tm " refers to the temperature at which the fraction of a polypeptide which is unfolded is equal to the fraction folded (ΔG=0). The Tm is determined by curve fitting a thermal denaturation curve (described supra) to an equation known in the art (see, O'Shea et al (1992) Cell 68:699-708) using a nonlinear least squares-fitting program (e.g., Kaledagraph, Synergy Software). Alternatively, the Tm for each polypeptide may also be determined by taking the first derivative of the CD signal (β) with respect to temperature^-1 (temperature in K) and finding the minimum of this function (Cantor and Schimmel, 1980). Similarly, denaturation induced by additives such as urea or GuHCl can be followed by circular dichroism. These measurements can yield the Cm, i.e., the denaturant concentration where ΔG=0. Linear extrapolation of the transition to zero denaturant can yield the equilibrium constant in aqueous buffer. This can be converted to a free energy of association using the formula ΔG=--RTlnK [Cantor and Schimmel (1980) supra).
CD spectra (180-300 nm) for the APC-55 and anti-APCp1 peptides alone and in combination were recorded in a 1 mm quartz cuvette at 5° C. using an Aviv 62DS circular dichroism spectrophotometer. The concentrations of peptide stocks were determined optically by the method of Gill and vonHippel, Anal. Biochem 182:319-326 (1989). Peptide stocks were diluted in 10 mM KPO4, 100 mM KF, pH 7.0. Thermal denaturations were carried out in steps of 1-3° C. with 2 minutes for equilibration and one minute for data averaging. Thermal transitions were >95% reversible. The results in FIGS. 3 and 4 obtained with the APC-55 alone are shown by open circles (.largecircle.), with the anti-APCp1 alone by squares (.quadrature.), and with an equimolar mixture of APC-55 and anti-APCp1 with closed circles (.circle-solid.).
In general terms: CD spectra are sensitive to the conformation of chiral molecules.

For data set [2], the target named is T3, APC-55, a peptide corresponding to amino acids 2-55 of human APC (human).
T3 peptide: T1 sequence (P25054 2-55)
Kind of data set: thermal denaturation by CD, equimolar mixture, 8.0 µM.

Data set [3] has as its target T3, APC-55, a peptide corresponding to …. Kind of data set: thermal stability at 20 µM peptide in PBS (pH 7.0), mixture.
Data set [4] has the same target. Kind of data set: thermal denaturation by CD, equimolar mixture, 75.0 µM.
The target is the same in data set [5]. Kind of data set: thermal denaturation by CD, equimolar mixture, 20.0 µM.
The target is the same in data set [6]. Kind of data set: fluorescence energy transfer titration.
Data set [7] concerns the target GST-APC-H1-4 (GST fused to the N-terminal 373 amino acids of the APC protein, heptad repeats 1-4) (human, UniProt P08515 = GST). Kind of data set: Western blot of bacterial lysates, 5 nM biotinylated peptide, streptavidin-HRP. As for the experimental part: (§1) Bacterial lysates containing GST, GST-APC-H1, GST-APC-H1-4 and GST-APC-probe were diluted 1:10 in cell lysates from induced BL21 cells containing no APC sequences and adjusted to a final protein concentration of 0.5 mg/ml in sample buffer. Five micrograms of each sample was electrophoresed on a precast 10% Tricine-SDS polyacrylamide gel (Novex) as described by Schager and von-Jagow (1987). Proteins were transferred to 0.45 micron nitrocellulose for 2 hours at 100 V, 4° C., in transfer buffer (25 mM Tris, 192 mM glycine, 20% methanol, 0.1% SDS).
(§2) The anti-APCp1 peptide was biotinylated by removing the F-moc protecting group from the N-terminus of the peptide on the synthesis resin and incubating the resin with the N-hydroxy-succinimidyl ester of biotin containing a long spacer arm (Pierce, Catalog #21336) in dimethylformamide. The biotinylated anti-APCp1 contains Met (instead of Nrl) as well as an additional Leu8Val mutation and Glu-Asp-Glu (wild-type APC sequence) at the peptide C-terminus. This probe was indistinguishable from anti-APCp1 in native gel experiments and CD experiments (data not shown). Blots were blocked for 1 hour in PNT buffer (10 mM phosphate, pH 8.0, 175 mM NaCl, 0.1% Tween-20) containing 0.5% bovine serum albumin. After blocking, blots were probed for I hour at 42° C. with 5 nM biotinylated antiAPC peptide in PNT buffer containing 1% BSA. […]

Data set [8] has as its target GST-APC-H1 (GST fused to the first 55 amino acids of the human APC protein, heptad repeat 1) (human, UniProt P08515 = GST). The data set is described as above. The protocol:
as §1, §2

Data set [9] in a line: thermal denaturation by CD, peptide alone, 20.0 µM.
A short description of data set [10]: thermal denaturation by CD at 222 nm, peptide alone (homo-oligomer), 75.0 µM.
The nature of data set [11]: thermal denaturation by CD, peptide alone, 8.0 µM.
Data set [12] in a line: thermal stability at 20 µM peptide in PBS (pH 7.0), peptide alone.
The nature of data set [13]: thermal denaturation by CD at 222 nm, peptide alone (homo-oligomer), 8.0 µM.
Data set [14] is described as follows: thermal denaturation by CD, peptide alone, 75.0 µM.
Data set [15] in a line: thermal denaturation by CD at 222 nm, peptide alone (homo-oligomer), 20.0 µM.
For another data set, the target named is T4, coumarin-labeled APC-55 (human, coumarin label (site not stated)).
T4 peptide: T1 sequence (P25054 2-55)
Kind of data set: fluorescence energy transfer measurements.

Turning to “MAAKGDQLKKEVEALEYENSNLRKKLEDHKKKLTKLKTEISNAKKMLKQLYASI [anti-APCp1]”, the Kd at APC-55 (fluorescein- and coumarin-labeled anti-APCp1 and APC-55, data not shown, read-out: Kd of the heterodimer (upper limit)) is ≤ 10 nM.

Take “APC-55: peptide corresponding to amino acids 2-55 of human APC; target coiled coil; MAAASYDQLLKQVEALKMENSNLRQELEDNSNHLTKLETEASNMKEVLKQLQGSI”: the “Apparent Tm (+/- 1.25° C.)” value is 36.3 °C in [1] (8.0 μM peptide (Table 9)), 40.0 °C in [1] (20.0 μM peptide (Table 9)) and 46.5 °C in data set [1] (75.0 μM peptide (Table 9)). Also, the “Apparent Tm” value in data set [1] (8.0 μM peptide) came to 36.3 °C; in data set [1] (20.0 μM peptide), 40.0 °C; in [1] (75.0 μM peptide), 46.5 °C. Moreover, in [1] (20 μM peptide concentration in PBS (pH 7.0)), the “Tm (thermal stability)” value was found to be 40.0 °C.

For “[Nle]AAKGDQLKKEVEALEYENSNLRKKLEDHKKKLTKLKTEISNAKK[Nle]LKQLYASI [anti-APCp2]”, the Kd at APC-55 (estimated from the sensitivity of the fluorescence method, read-out: dissociation constant of the APC-55/Anti-APCp2 heterodimer) was < 10 nM.

B1: anti-APCp2 polypeptide probe (designed binder)
peptide: [Nle]AAKGDQLKKEVEALEYENSNLRKKLEDHKKKLTKLKTEISNAKK[Nle]LKQLYASI
Take B1: the “Apparent Tm” value came to 52.9 ° C in data set [2], 63.6 ° C in [4] and 57.5 ° C in [5]. For the same molecule, the Tm in data set [3] is 57.5 ° C. For the same molecule, the Kd in data set [6] is < 10 nM.

B2: biotinylated anti-APCp1 (contains Met instead of Nrl, an additional Leu8Val mutation and Glu-Asp-Glu at the peptide C-terminus) (designed binder)
peptide: {biotin (long spacer arm)}-MAAKGDQVKKEVEALEYENSNLRKKLEDHKKKLTKLKTEISNAKKMLKQLYASIEDE
Take B2: the binding result in data set [7] and in data set [8] was “binds” in each case.

B3: APC-55, a peptide corresponding to amino acids 2-55 of human APC (protein)
chain: T1 sequence (P25054 2-55)
Consider B3, for which the Apparent Tm in data set [9] came to 40 ° C; in [10] it was 46.5 ° C; in data set [11], 36.3 ° C; in [13] it was 36.3 ° C; in data set [14], 46.5 ° C; in data set [15], 40 ° C. Moreover, the Tm in data set [12] worked out at 40 ° C.

B4: fluorescein-labeled anti-APCp1 (designed binder)
peptide: MAAKGDQLKKEVEALEYENSNLRKKLEDHKKKLTKLKTEISNAKKMLKQLYASI
modifications: also: fluorescein label (site not given here)
Take B4: the Kd with coumarin-labeled APC-55 is ≤ 10 nM.
